In article PMC4330348, “Identification of protein complexes that bind to histone H3 combinatorial modifications using super-SILAC and weighted correlation network analysis” (Nucleic Acids Research, 2015):

B1: Ezh2 (enzyme)
chain: not shown
notes: Ezh2, mouse; also called PRC2 complex member; source: endogenous, MPC11 nuclear and chromatin extract
B2: Eed (natural protein)
chain: not shown
notes: Eed, mouse; also called PRC2 complex member; source: endogenous, MPC11 nuclear and chromatin extract
B3: Suz12 (natural protein, mouse (endogenous in MPC11), UniProt Q80U70 1-741, looked up)
chain: MAPQKHGGGGGGGSGPSAGSGGGGFGGSAAAVAAAASGGKSGGGGCGGGGSYSASSSSAAAAAAAAGAAVLPVKKPKMEHVQADHELFLQAFEKPTQIYRFLRTRNLIAPIFLHRTLTYMSHRNSRTSIKRKTFKVDDMLSKVEKMKGEQESHSLSAHLQLTFTGFFHKNDKPSQNSENEQNSVTLEVLLVKVCHKKRKDVSCPIRQVPTGKKQVPLNPDLNQTKPGNFPSLAVSSNEFEPSNSHMVKSYSLLFRVTRPGRREFNGMINGETNENIDVSEELPARRKRNREDGEKTFVAQMTVFDKNRRLQLLDGEYEVAMQEMEECPISKKRATWETILDGKRLPPFETFSQGPTLQFTLRWTGETNDKSTAPVAKPLATRNSESLHQENKPGSVKPAQTIAVKETLTTELQTRKEKDNSNESRQKLRIFYQFLYNNNTRQQTEARDDLHCPWCTLNCRKLYSLLKHLKLCHSRFIFNYVYHPKGARIDVSINECYDGSYAGNPQDIHRQPGFAFSRNGPVKRTPITHILVCRPKRTKASMSEFLESEDGEVEQQRTYSSGHNRLYFHSDTCLPLRPQEMEVDSEDEKDPEWLREKTITQIEEFSDVNEGEKEVMKLWNLHVMKHGFIADNQMNHACMLFVENYGQKIIKKNLCRNFMLHLVSMHDFNLISIMSIDKAVTKLREMQQKLEKGESATPSNEEIAEEQNGTANGFSETNSKEKALETDGVSGVPKQSKKQKL
notes: Suz12, mouse; also called PRC2 complex member; source: endogenous, MPC11 nuclear and chromatin extract

Molecular target: T1, histone H3 peptide aa1–20 trimethylated at K9 (H3K9me3) (UniProt P68431 2-21, trimethyl-lysine at K9; biotin attached to the C-terminus via a glycine-lysine linker)
T1 construct: histone H3 N-terminal tail, aa1–20; glycine-lysine linker (told in words), carries the biotin; also called H3K9me3 modified H3 1–20 peptide; source: synthetic peptide (GL biochem)
Experiment: affinity purification with mass spectrometry; biotinylated histone H3 peptides on NeutrAvidin beads; pooled nuclear and MNase-solubilised chromatin extracts of SILAC-labelled MPC11 cells adjusted to 150 mM NaCl, 4°C; washes with 150 mM KCl, 0.2% Triton X-100; heavy pulldowns against a mixed light reference (super-SILAC); beads alone as control; two replicates
Conditions: one partner purified

| fold binding relative to the H3K27me3 peptide | Binder |
| --- | --- |
| ~3 fold | B1 |
| ~3 fold | B2 |
| ~3 fold | B3 |
